*1 amine or outer side, *2 acyl side, *3 side chain or, on linkers, in order; H or OH if unused. Bridges are numbered along the chain shown (N, C = ends). Primed or numbered codes have the meaning given here. Where no end group is shown, it is not given here. Side-chain parts run from the residue outwards. [ ]: non-standard residue; d: D form. The star is where a group is joined. code d = side-chain group of K(d): lysine given as (2R)-2-(4-((5-amino-5-carboxypentyl)amino)-4-oxobutanamido)-3-carboxy-N,N,N-trimethylpropan-1-aminium, C[N+](C)(C)C[C@@H](CC(=O)O)NC(=O)CCC(=O)*; TMAPF = 5-(4-(2-amino-2-carboxyethyl)phenoxy)-N,N,N-trimethylpentan-1-aminium, C[N+](C)(C)CCCCCOc1ccc(C[C@H](N[*:1])C(=O)[*:2])cc1; code d″ = lysine side-chain amide of a carnitine-succinyl group ((2R)-3-carboxy-N,N,N-trimethylpropan-1-aminium amide; Biotin = O=C1N[C@H]2[C@H](CS[C@H]2CCCCC(=O)*)N1; PEG2′ = PEG2 spacer unit (not further defined); Trp(7-Me) = Cc1cccc2c(C[C@H](N)C(=O)O)c[nH]c12; γGlu = O=C(O)[C@H](CCC(=O)[*:2])N[*:1]; 2Nal = N[C@@H](Cc1ccc2ccccc2c1)C(=O)O; AEF = NCCOc1ccc(C[C@H](N)C(=O)O)cc1; 3Pal = N[C@@H](Cc1cccnc1)C(=O)O; NMeK = CN[C@@H](CCCCN)C(=O)O; NMecPEG3a = not defined here; Pen = CC(C)(S)[C@H](N)C(=O)O; PEG2″ = PEG2 spacer unit; PEG4′ = not defined here; Thp = NC1(C(=O)O)CCOCC1; Sar = CNCC(=O)O
T1: interleukin-23 receptor (IL-23R) (UniProt Q5VWK5 24-629, limits assumed)
T1 sequence (looked up): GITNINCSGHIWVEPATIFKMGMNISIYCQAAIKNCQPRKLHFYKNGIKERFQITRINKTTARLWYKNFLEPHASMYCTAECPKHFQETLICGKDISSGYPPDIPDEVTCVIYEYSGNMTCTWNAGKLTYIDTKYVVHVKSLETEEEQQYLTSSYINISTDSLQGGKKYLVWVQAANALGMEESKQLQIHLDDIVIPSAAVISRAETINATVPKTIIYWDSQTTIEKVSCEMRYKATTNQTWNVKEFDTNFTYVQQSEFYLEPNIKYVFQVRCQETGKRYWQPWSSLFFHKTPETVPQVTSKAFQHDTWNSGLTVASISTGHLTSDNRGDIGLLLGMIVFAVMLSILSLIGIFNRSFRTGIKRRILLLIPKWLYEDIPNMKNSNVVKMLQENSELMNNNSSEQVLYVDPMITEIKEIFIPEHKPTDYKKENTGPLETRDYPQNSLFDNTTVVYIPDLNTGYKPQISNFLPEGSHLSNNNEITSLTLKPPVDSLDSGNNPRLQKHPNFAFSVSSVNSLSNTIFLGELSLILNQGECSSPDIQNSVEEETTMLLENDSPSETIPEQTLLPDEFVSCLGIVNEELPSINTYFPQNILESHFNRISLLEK


Key:
Assay in all cases: cell-based or functional assay
[1] = biological target: interleukin-23 receptor (IL-23R) (UniProt Q5VWK5)
[2] = biological target: T1, interleukin-23 receptor (IL-23R)
[3] = biological target: T1, interleukin-23 receptor (IL-23R); remark: listed apart in the source

Molecule | EC90, IL23R reporter assay [1] [ng/mL] | IC50, IL23R reporter assay [2] [nM] | PBMC pSTAT3 IC50 [3] [nM]
interleukin-23 (IL-23) (from UniProt Q9NPF7 20-189; P29460 23-328) (ligand) | 10 |  | 
Ac-[dR][Pen]NT[Trp(7-Me)]Q[Pen][AEF][2Nal][Thp]EN[3Pal][Sar]K([PEG2′-PEG2′-γGlu-C18OH])-NH2 (disulfide 2-7 (inferred)) [SEQ ID NO: 38] |  | < 50 | < 0.5
Ac-K([PEG2′-PEG2′-γGlu-C18OH])[Pen]NT[Trp(7-Me)]K(Ac)[Pen][AEF][2Nal][Thp]K(Ac)N[3Pal][Sar]-NH2 (disulfide 2-7 (inferred)) [SEQ ID NO: 39] |  | < 50 | < 0.5
Ac-[dK]([PEG2′-PEG2′-γGlu-C18OH])[Pen]NT[Trp(7-Me)]K(Ac)[Pen][AEF][2Nal][Thp]EN[3Pal][NMeK](code d)-NH2 (disulfide 2-7 (inferred)) [SEQ ID NO: 42] |  | < 50 | < 0.5
[dR][Pen]NT[Trp(7-Me)]K(Ac)[Pen][AEF][2Nal][Thp]EN[3Pal][NMeK](code d)-NH2 (disulfide 2-7 (inferred); not fully specified (N-terminus); printed as HOC18gEPEG2PEG2CO-r-Pen(3)-N-T-7MeW-K(Ac)-Pen(3)-AEF-2Nal-THP-E-N-3Pya-NMeK(d)-CONH2) [SEQ ID NO: 43] |  | < 50 | < 0.5
[dR][Pen]NT[Trp(7-Me)]K(code d)[Pen][AEF][2Nal][Thp]EN[3Pal][Sar]-NH2 (disulfide 2-7 (inferred); not fully specified (N-terminus); printed as HOC18gEPEG2PEG2CO-r-Pen(3)-N-T-7MeW-K(d)-Pen(3)-AEF-2Nal-THP-E-N-3Pya-Sar-CONH2) [SEQ ID NO: 46] |  | < 50 | < 0.5
[dR][Pen]K(code d)T[Trp(7-Me)]K(Ac)[Pen][AEF][2Nal][Thp]EN[3Pal][Sar]-NH2 (disulfide 2-7 (inferred); not fully specified (N-terminus); printed as HOC18gEPEG2PEG2CO-r-Pen(3)-K(d)-T-7MeW-K(Ac)-Pen(3)-AEF-2Nal-THP-E-N-3Pya-Sar-CONH2) [SEQ ID NO: 47] |  | < 50 | < 0.5
Ac-[dR][Pen]NT[Trp(7-Me)]K(Ac)[Pen][AEF][2Nal][Thp]K(code d″)N[3Pal][Sar]K([PEG2″-PEG2″-γGlu-C18OH])-NH2 (disulfide 2-7 (inferred)) [SEQ ID NO: 51] |  | ≥ 500 | < 0.5
Ac-[dR][Pen]NT[Trp(7-Me)]K(Ac)[Pen][AEF][2Nal][Thp]K([PEG4′-Biotin])N[3Pal][Sar]K([PEG2″-PEG2″-γGlu-C18OH])-NH2 (disulfide 2-7) [SEQ ID NO: 56] |  | < 50 | < 0.5
{Biotin-PEG4′}-[dR][Pen]NT[Trp(7-Me)]K(Ac)[Pen][AEF][2Nal][Thp]EN[3Pal][Sar]K([PEG2″-PEG2″-γGlu-C18OH])-NH2 (disulfide 2-7) [SEQ ID NO: 57] |  | < 50 | < 0.5
{HOC18-γGlu-PEG2″-PEG2″}-[dR][Pen]NT[Trp(7-Me)]K(Ac)[Pen][AEF][2Nal][Thp]EN[3Pal][Sar]-NH2 (disulfide 2-7) [SEQ ID NO: 60] |  | < 50 | < 0.5
XNTXXXXXXENXX (HOC18gEPEG2PEG2CO-Pen(3)-N-T-7MeW-K(Ac)-Pen(3)-AEF-2Nal-THP-E-N-3Pya-Sar-CONH2) [SEQ ID NO: 61] |  | < 50 | < 0.5
Ac-K([PEG2″-PEG2″-γGlu-C18OH])[Pen]NT[Trp(7-Me)]K(Ac)[Pen][TMAPF][2Nal][Thp]K(Ac)N[3Pal][Sar]-NH2 (disulfide 2-7 (inferred)) [SEQ ID NO: 62] |  | < 50 | < 0.5
Ac-[dR][Pen]NT[Trp(7-Me)]K(NMecPEG3a)[Pen][AEF][2Nal][Thp]EN[3Pal][Sar]K([PEG2″-PEG2″-C18OH])-NH2 (disulfide 2-7 (inferred); reading uncertain; also: printed as MeCO-r-Pen(3)-N-T-7MeW-K(NMecPEG3a)-Pen(3)-AEF-2Nal-THP-E-N-3Pya-Sar-K(PEG2PEG2C18OH)-CONH2) [SEQ ID NO: 70] |  | < 50 | < 0.5

From patent US20260250320A1, “LIPIDATED PEPTIDE INHIBITORS OF INTERLEUKIN-23 RECEPTOR” (Janssen Pharmaceutica NV, priority 2023, published 2026)
